The results in this text go back to US20130281922A1 (KANCERA, published 2013).

The assay addresses T1, human ROR1 on cells (human, UniProt Q01973 30-937).
T1 construct: whole, on cells
Briefly: Scatchard plot of 125I-labelled 009-G03 binding to RPMI-8226 cells, 2.5 h on ice. The protocol:
Antibody was labelled with ¹²⁵I using free Iodine and test tubes pre-coated with the oxidant reagent Iodogen (1,3,4,6-tetrachloro-3α,6α-diphenylglycoluri, Thermo scientific), according to manufactures instruction. Briefly 200 μg of antibody was labeled for 10 minutes in PBS and free iodine were removed using a small disposable desalting columns (NAP 5, GE Healthcare Life science). […] 0.5×10⁶ cells were incubated for 2.5 h on ice with different concentrations of ¹²⁵I-labelled 009-G03 antibody. Free nonbinding antibody (F) was separated from cell bound antibody (B) by centrifugation through a 40% Ficoll-cushion and samples were analysed in a gamma counter (FIG. 29).

T1 sequence (Q01973 30-937): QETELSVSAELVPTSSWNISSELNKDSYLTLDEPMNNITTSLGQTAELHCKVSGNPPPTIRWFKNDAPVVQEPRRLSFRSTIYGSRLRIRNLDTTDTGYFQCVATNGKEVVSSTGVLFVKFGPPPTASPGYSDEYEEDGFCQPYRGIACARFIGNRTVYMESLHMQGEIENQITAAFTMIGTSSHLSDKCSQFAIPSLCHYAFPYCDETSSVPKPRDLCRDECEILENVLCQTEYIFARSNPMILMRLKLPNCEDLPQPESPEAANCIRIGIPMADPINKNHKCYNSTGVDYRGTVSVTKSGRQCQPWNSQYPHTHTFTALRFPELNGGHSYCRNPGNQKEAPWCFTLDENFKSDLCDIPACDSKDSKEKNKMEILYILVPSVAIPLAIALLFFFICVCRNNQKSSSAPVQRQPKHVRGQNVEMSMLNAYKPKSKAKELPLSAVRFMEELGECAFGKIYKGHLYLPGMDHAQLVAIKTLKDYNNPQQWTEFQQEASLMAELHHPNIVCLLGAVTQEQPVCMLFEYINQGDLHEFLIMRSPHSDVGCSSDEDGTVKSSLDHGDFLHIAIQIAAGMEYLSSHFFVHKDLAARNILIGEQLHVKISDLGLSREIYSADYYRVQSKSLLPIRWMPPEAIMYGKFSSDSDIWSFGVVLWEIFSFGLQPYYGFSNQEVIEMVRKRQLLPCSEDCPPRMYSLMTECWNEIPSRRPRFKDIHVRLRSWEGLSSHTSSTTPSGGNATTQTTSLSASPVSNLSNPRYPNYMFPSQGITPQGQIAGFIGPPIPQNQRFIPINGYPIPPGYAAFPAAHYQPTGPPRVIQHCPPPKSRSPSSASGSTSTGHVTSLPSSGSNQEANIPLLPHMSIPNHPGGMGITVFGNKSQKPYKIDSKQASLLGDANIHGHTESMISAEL

B1: ROR1-009-G03 (antibody, V domains shown)
VH: EVQLLESGGGLVQPGGSLRLSCAASGFTFSDYYMSWIRQAPGKGLEWVSAISGSGGSTYYADSVKGRFTISRDNSKNTLYLQMNSLRAEDTAVYYCAKEDWEGASFDYWGQGTLVTVSS
VL: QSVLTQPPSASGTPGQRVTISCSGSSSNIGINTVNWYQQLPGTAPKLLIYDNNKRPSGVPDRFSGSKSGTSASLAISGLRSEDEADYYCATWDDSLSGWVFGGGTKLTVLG
notes: also called ROR 009 G03; ROR1 specific mAb 009-G03
The term Kd denotes the concentration at which binding is half-saturated. Read a high Kd as lower affinity. B1 showed a Kd of 1 nM.
